We go through two substances from paper PMC10706732.

The assay concerns the target Human ceruloplasmin (human) (UniProt P00450). As to the kind of experiment: SPR; Biacore X100; human CP immobilised on CM5 chip by EDC/NHS (3.3 ng/mm2); LF or LF/8OA as analyte in HBS-P+ (150 mM NaCl, 10 mM Hepes pH 7.5, 0.05% polyoxyethylene sorbitan), 30 uL/min; 1:1 Langmuir model.
UniProt P00450, sequence (P00450 20-1065): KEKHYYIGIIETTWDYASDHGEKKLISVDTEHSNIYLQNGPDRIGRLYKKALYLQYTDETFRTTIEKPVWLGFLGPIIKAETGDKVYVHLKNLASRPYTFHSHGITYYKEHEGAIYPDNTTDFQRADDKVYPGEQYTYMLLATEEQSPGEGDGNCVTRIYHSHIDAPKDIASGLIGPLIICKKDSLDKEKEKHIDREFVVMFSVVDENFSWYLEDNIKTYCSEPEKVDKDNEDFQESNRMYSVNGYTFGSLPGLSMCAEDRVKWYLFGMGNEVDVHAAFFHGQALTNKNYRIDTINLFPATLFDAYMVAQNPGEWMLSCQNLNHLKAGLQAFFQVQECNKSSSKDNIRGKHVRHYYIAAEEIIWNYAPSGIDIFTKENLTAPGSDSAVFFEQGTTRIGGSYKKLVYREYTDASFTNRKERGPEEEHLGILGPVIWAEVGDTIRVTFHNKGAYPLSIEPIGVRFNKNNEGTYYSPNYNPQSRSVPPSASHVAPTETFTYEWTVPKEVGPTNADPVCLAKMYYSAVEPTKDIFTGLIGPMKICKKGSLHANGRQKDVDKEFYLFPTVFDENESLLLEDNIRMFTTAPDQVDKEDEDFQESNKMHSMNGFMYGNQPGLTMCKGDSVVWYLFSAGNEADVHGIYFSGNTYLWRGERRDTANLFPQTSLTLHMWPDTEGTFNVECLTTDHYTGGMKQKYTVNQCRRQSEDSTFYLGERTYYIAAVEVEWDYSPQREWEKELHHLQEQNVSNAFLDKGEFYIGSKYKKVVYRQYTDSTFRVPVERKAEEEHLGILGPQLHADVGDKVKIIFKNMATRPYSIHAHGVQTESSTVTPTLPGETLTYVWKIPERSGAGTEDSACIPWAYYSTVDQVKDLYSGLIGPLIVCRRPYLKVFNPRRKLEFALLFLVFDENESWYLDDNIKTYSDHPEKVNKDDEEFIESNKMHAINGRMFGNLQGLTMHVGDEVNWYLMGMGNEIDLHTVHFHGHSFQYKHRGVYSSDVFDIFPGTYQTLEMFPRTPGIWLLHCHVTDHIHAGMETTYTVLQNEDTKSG

For the substance “Recombinant human lactoferrin (natural protein)”, the Kd worked out at 367 nM.

The substance “Complex formed by one human lactoferrin molecule and eight molecules of oleic acid” came in with a Kd of 407 nM.
